We go through 1 substance from patent US5670340.

Experiment [1] deals with fusion protein encoded by pG97S4DhCT(G)R5 (β-gal97S4D - linker R5 - hCT(G)) (Escherichia coli; human) [β-galactosidase: P00722].
In experiment [2] the target is fusion protein encoded by pG97S4DhCT(G)R4 (β-gal97S4D - linker R4 - hCT(G)) (Escherichia coli; human) [β-galactosidase: P00722].
In experiment [3] the target is β-gal97S4DhCNP-22R5-2 fusion protein (Escherichia coli; human) [β-galactosidase: P00722].
Experiment [4] has as its target β-gal97S4DhCNP-22R3-2 fusion protein (Escherichia coli; human) [β-galactosidase: P00722].
Experiment [5] deals with β-gal97S4DhCNP-22R5-3 fusion protein (Escherichia coli; human) [β-galactosidase: P00722].

Turning to “V8 protease (from UniProt P0C1U8) (enzyme)”, the cleavage efficiency (hCT(G) released, HPLC) came out at 7% in experiment [1] and 97% in experiment [2]. The release efficiency of human CNP-22 (HPLC) in experiment [3] turned out to be 95%; in experiment [4], 99%; in experiment [5] it was 92%.
